Measured values published in paper PMC8115823.

Experiments:
[1] = target: RNA polymerase (Escherichia coli) (UniProt P0A7Z4); conditions: cited from earlier work
[2] = target: DNA topoisomerase I (TopoI) of Streptococcus pneumoniae (S. pneumoniae); assay: SPR; TopoI immobilised on a new CM5 chip; RNAP holoenzyme 240 nM injected alone (no drug)
[3] = target: DNA topoisomerase I (TopoI) of Streptococcus pneumoniae (S. pneumoniae); assay: SPR; TopoI immobilised on a new CM5 chip; RNAP holoenzyme 240 nM incubated with 1 x MIC rifampicin (Rif)
[4] = target: DNA topoisomerase I (TopoI) of Streptococcus pneumoniae (S. pneumoniae); assay: SPR; TopoI immobilised on a new CM5 chip; RNAP holoenzyme 240 nM incubated with 1 x MIC seconeolitsine (SCN)
[5] = target: DNA topoisomerase I (TopoI) of Streptococcus pneumoniae (S. pneumoniae); assay: SPR; Biacore X100; about 3000 RU of TopoI immobilised on a CM5 chip by amine coupling; RNAP holoenzyme 7.5-240 nM flowed at 50 ul/min; 25 C; 20 mM Tris HCl pH 7.5, 100 mM NaCl, 10 mM MgCl2, 0.1 mM EDTA, 1 mM DTT, 0.005% Tween-20, 5% glycerol; regeneration with 1 M NaCl; kinetic fit; two independent assays

Chain of DNA topoisomerase I (P06612 whole entry): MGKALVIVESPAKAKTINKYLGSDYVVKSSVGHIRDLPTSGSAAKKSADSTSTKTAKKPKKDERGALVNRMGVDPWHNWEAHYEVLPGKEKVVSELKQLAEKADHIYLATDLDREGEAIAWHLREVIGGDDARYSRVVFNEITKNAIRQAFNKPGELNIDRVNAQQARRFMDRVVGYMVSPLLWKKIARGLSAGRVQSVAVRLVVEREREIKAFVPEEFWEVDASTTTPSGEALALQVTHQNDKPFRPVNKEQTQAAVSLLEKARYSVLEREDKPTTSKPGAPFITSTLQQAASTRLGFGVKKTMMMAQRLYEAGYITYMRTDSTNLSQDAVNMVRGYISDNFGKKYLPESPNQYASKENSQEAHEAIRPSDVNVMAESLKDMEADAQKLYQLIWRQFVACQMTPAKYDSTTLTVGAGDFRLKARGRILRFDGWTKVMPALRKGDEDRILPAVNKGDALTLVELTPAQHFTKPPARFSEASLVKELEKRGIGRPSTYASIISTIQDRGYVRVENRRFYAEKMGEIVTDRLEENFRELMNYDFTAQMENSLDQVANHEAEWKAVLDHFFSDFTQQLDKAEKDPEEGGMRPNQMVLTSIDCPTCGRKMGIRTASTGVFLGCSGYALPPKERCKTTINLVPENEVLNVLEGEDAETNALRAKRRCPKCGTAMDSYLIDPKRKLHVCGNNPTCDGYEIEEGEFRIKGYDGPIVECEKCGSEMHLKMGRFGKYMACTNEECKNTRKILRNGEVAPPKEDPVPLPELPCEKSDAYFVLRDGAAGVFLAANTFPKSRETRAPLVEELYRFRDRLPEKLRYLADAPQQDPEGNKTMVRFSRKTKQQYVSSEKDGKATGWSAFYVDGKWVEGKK

Row | SPR response (no drug) [2] | SPR response with Rif [3] | SPR response with SCN [4] | Kd [5] | Substance | Kd [1]
1 | – | – | – | – | DNA topoisomerase I (from UniProt P06612) | 0.093 µM
2 | 173 RU | 122 RU | 40.9 RU | 0.027 µM | RNA polymerase (RNAP) holoenzyme of Streptococcus pneumoniae (from UniProt P66708 1-311; A0A0H2ZQA1 1-369) (complex) | –
